Numbering of substitutions follows the chain as printed.
T1: Human TROP2 Protein, His Tag (Acro Biosystems) (human, UniProt P09758 27-274)
T1 construct: not shown: His tag
T1 sequence (looked up): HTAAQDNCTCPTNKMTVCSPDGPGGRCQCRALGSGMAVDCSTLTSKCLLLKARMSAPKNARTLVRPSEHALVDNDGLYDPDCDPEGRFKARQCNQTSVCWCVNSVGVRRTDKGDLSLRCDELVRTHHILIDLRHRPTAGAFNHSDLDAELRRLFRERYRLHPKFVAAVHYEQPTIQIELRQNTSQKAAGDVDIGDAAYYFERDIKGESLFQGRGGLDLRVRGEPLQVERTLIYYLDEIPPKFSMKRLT

T2: Human TROP2 Protein, His Tag (Acro Biosystems) (human, UniProt P09758 27-274)
T2 construct: Bought protein; also called TACSTD2; not shown: His tag
T2 sequence: T1 sequence (looked up)

T3: TROP2 on TROP2-positive NCI-H1975 cells (human, UniProt P09758 27-323)
T3 construct: whole, on cells
T3 sequence (looked up): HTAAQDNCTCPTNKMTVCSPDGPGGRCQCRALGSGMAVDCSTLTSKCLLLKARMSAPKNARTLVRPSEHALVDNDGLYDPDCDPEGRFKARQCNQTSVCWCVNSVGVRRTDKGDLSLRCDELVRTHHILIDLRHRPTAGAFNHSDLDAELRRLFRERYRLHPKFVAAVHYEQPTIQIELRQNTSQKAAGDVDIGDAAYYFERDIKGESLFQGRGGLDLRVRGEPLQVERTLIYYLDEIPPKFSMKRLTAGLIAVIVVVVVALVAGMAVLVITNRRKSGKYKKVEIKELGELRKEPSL

T4: Human TROP2 Protein, His Tag (Acro Biosystems) (human, UniProt P09758 27-274)
T4 construct: not shown: His tag
T4 sequence (looked up): T1 sequence (looked up)

B1: MYT11635 (antibody, human IgG1, V domains shown)
VH: QVQLVQSGAEVKKPGASVKVSCKASGYTFTTAGMQWVRQAPGQGLEWMGWINTHSGVPKYAEDFKGRVTISADTSTSTAYLQLSSLKSEDTAVYYCARSGFGSSYWYFDVWGQGTLVTVSS
VL: DIQMTQSPSSLSASVGDRVTITCKASQDVSTAVAWYQQKPGKAPKLLIYSASYRYTGVPSRFSGSGSGTDFTLTISSLQPEDFAVYYCQQHYITPLTFGQGTKLEIK
notes: IgG; also called Datopotamab WT; Datopotamab
B2: MYT11566 (antibody, human IgG1, V domains shown)
VH: QVQLQQSGSELKKPGASVKVSCKASGYTFTNYGMNWVKQAPGQGLKWMGWINTYTGEPTYTDDFKGRFAFSLDTSVSTAYLQISSLKADDTAVYFCARGGFGSSYWYFDVWGQGSLVTVSS
VL: B1 VL with M4L, T20S, T31I, S60D, Q100A, L104V
notes: IgG; also called Sacituzumab WT; Sacituzumab
B3: MYT11699 (antibody, V domains shown)
VH: B1 VH
VL: B1 VL with I93H
notes: IgG; also called Datopotamab LC variant
B4: MYT11614 (antibody, human IgG1, V domains shown)
VH: B2 VH
VL: B1 VL with M4L, T20S, S30H, T31I, S60D, Q100A, L104V
notes: IgG; also called Sacituzumab LC variant
B5: MYT13369 (antibody, human IgG1, V domains shown)
VH: B2 VH with D62H
VL: B1 VL with M4L, T20S, S30H, T31I, V33H, S60D, Q100A, L104V
notes: IgG; also called Sacituzumab HC-LC pairing variant
B6: MYT13370 (antibody, human IgG1, V domains shown)
VH: B2 VH with D63H
VL: B1 VL with M4L, T20S, S30H, T31I, V33H, S60D, Q100A, L104V
notes: as for B5
B7: MYT11670 (antibody, human IgG1, V domains shown)
VH: B1 VH with S104H
VL: B1 VL
notes: IgG
B8: MYT11704 (antibody, human IgG1, V domains shown)
VH: QVQLQESGPGLVKPSETLSLTCTVSGGSISSYGVHWIRQPPGKGLEWIGVIWTSGVTDYNSALMGRVTISVDTSKNQFSLKLSSVTAADTAVYYCARDGDYDRYTMDYWGQGTLVTVSS
VL: DIVMTQSPDSLAVSLGERATINCRASKSVSTSGYSYMHWYQQKPGQPPKLLIYLASNLESGVPDRFSGSGSGTDFTLTISSLQAEDVAVYYCQHSRELPYTFGQGTKLEIK
notes: IgG; also called hu7E6SVG WT; hu7E6SVG
B9: MYT12459 (antibody, human IgG1, V domains shown)
VH: B8 VH
VL: B8 VL with E59H, Q93H, E97H
notes: IgG; also called hu7E6SVG LCC his scan variant
B10: MYT12465 (hu7E6SVG variant, LCV substitutions at 60, 93, 97) (antibody, V domains shown)
VH: B8 VH
VL: B8 VL with S60H, Q93H, E97H
notes: Full IgG in Expi293 supernatant
B11: MYT12413 (hu7E6SVG variant, HCV substitutions at 33, 106) (antibody, V domains shown)
VH: B8 VH with G33H, M106H
VL: B8 VL
B12: MYT12462 (hu7E6SVG variant, LCV substitutions at 59, 94, 101 (Ala at 94)) (antibody, V domains shown)
VH: B8 VH
VL: B8 VL with E59H, H94A, T101H
notes: as for B10
B13: MYT12457 (hu7E6SVG variant, LCV substitutions at 59, 60, 101) (antibody, V domains shown)
VH: B8 VH
VL: B8 VL with E59H, S60H, T101H
notes: as for B10
B14: MYT12464 (hu7E6SVG variant, LCV substitutions at 60, 93, 94 (Ala at 94)) (antibody, V domains shown)
VH: B8 VH
VL: B8 VL with S60H, Q93H, H94A
notes: as for B10
B15: MYT12461 (hu7E6SVG variant, LCV substitutions at 59, 94, 97 (Ala at 94)) (antibody, V domains shown)
VH: B8 VH
VL: B8 VL with E59H, H94A, E97H
notes: as for B10
B16: MYT12456 (hu7E6SVG variant, LCV substitutions at 59, 60, 97) (antibody, V domains shown)
VH: B8 VH
VL: B8 VL with E59H, S60H, E97H
notes: as for B10
B17: MYT12458 (hu7E6SVG variant, LCV substitutions at 59, 93, 94 (Ala at 94)) (antibody, V domains shown)
VH: B8 VH
VL: B8 VL with E59H, Q93H, H94A
notes: as for B10
B18: MYT12460 (hu7E6SVG variant, LCV substitutions at 59, 93, 101) (antibody, V domains shown)
VH: B8 VH
VL: B8 VL with E59H, Q93H, T101H
notes: as for B10
B19: MYT12412 (hu7E6SVG variant, HCV substitutions at 33, 103) (antibody, V domains shown)
VH: B8 VH with G33H, R103H
VL: B8 VL
B20: MYT12351 (antibody, V domains shown)
VH: B2 VH
VL: B1 VL with M4L, T20S, T31I, A51H, S60D, Y92H, Q100A, L104V
notes: sacituzumab VL 51, 92 -> H
B21: MYT12353 (antibody, V domains shown)
VH: B2 VH
VL: B1 VL with M4L, T20S, T31I, S52H, Y53H, S60D, Q100A, L104V
notes: sacituzumab VL 52, 53 -> H
B22: MYT12374 (antibody, V domains shown)
VH: B2 VH
VL: B1 VL with M4L, T20S, T31I, A51H, Y53H, S60D, Q89H, Q100A, L104V
notes: sacituzumab VL 51, 53, 89 -> H
B23: MYT12357 (antibody, V domains shown)
VH: B2 VH
VL: B1 VL with M4L, T20S, T31I, S52H, S60D, I93H, Q100A, L104V
notes: sacituzumab VL 52, 93 -> H
B24: MYT12352 (antibody, V domains shown)
VH: B2 VH
VL: B1 VL with M4L, T20S, T31I, A51H, S60D, I93H, Q100A, L104V
notes: sacituzumab VL 51, 93 -> H
B25: MYT12364 (antibody, V domains shown)
VH: B2 VH
VL: B1 VL with M4L, T20S, T31I, S60D, Q89H, I93H, Q100A, L104V
notes: sacituzumab VL 89, 93 -> H
B26: MYT12376 (antibody, V domains shown)
VH: B2 VH
VL: B1 VL with M4L, T20S, T31I, A51H, S60D, Q89H, I93H, Q100A, L104V
notes: sacituzumab VL 51, 89, 93 -> H
B27: MYT12377 (antibody, V domains shown)
VH: B2 VH
VL: B1 VL with M4L, T20S, T31I, Y53H, S60D, Q89H, I93H, Q100A, L104V
notes: sacituzumab VL 53, 89, 93 -> H

Each binder was assayed against T1, Human TROP2 Protein, His Tag (Acro …) (assay: Octet (BLI); antigen and pH not given).

Binder	Kd	Octet response at 33.33 nM (Y-Axis) nm
B1	1.25 nM	0.13 nm
B2	0.6 nM	0.157 nm
B3	3.52 nM	0.0968 nm
B4	0.75 nM	0.149 nm
B5	0.14 nM	0.167 nm
B6	1.36 nM	0.155 nm
B7	10.9 nM	0.0891 nm
B8	4.4 nM	0.118 nm
B9	6.02 nM	0.0906 nm

What follows are binders tested against T2, Human TROP2 Protein, His Tag (Acro …) (assay: BLI (Octet), antibody on anti-human Fc sensor, human TROP2-His in solution; legend: 3=No binding).

Binder	binding result
B10	no binding (tested: 50 nM)
B11	no binding (tested: 50 nM)
B12	no binding (tested: 50 nM)
B13	no binding (tested: 50 nM)
B14	no binding (tested: 50 nM)
B15	no binding (tested: 50 nM)
B16	no binding (tested: 50 nM)
B17	no binding (tested: 50 nM)
B18	no binding (tested: 50 nM)

Each binder was assayed against T2, Human TROP2 Protein, His Tag (Acro …) (assay: BLI (Octet)).

Binder	binding result
B19	binds

The binders below were run against T3, TROP2 on TROP2-positive NCI-H1975 cells (assay: binding to TROP2-positive NCI-H1975 cells at pH 7.4).

Binder	IC50
B1	0.51 nM
B2	1.05 nM
B3	0.73 nM
B4	0.82 nM
B5	0.63 nM
B6	0.84 nM
B7	1.61 nM
B8	0.98 nM
B9	1.42 nM

The binders below were run against T4, Human TROP2 Protein, His Tag (Acro …) (assay: BLI (Octet) [2/2]).

Binder	binding result
B20	binds
B21	binds
B22	binds
B23	binds
B24	binds
B25	binds
B26	binds
B27	binds

The binders below were run against T3, TROP2 on TROP2-positive NCI-H1975 cells (assay: binding to TROP2-positive NCI-H1975 cells at pH 5.4).

Binder	IC50
B1	0.48 nM
B2	1.15 nM
B3	4.58 nM
B4	~5 nM
B5	~25 nM
B6	~45 nM
B7	1.83 nM
B8	1.29 nM
B9	~30 nM

What follows are binders tested against T3, TROP2 on TROP2-positive NCI-H1975 cells (assay: binding to TROP2-positive NCI-H1975 cells at pH 6.7).

Binder	IC50
B1	0.54 nM
B2	0.94 nM
B3	1.16 nM
B4	1.06 nM
B5	1.02 nM
B6	1.86 nM
B7	1.42 nM
B8	0.97 nM
B9	1.67 nM
